The values that follow come from patent publication US20100104557A1.

In test [1] the target is His-tagged HM1.24 antigen, residues N49-A163 of the extracellular domain (human) (UniProt Q10589). As to the kind of experiment: Biacore (SPR): His-tagged HM1.24 antigen coupled directly to the chip (NHS chemistry), antibody as analyte; separate kd and ka fitting.
The target is the same in test [2]. As to the kind of experiment: Biacore (SPR): antibody on a protein A chip, HM1.24 antigen as analyte; antibody post incubation (pH 9, 37 C, 4 days). In general terms: SPR reads the build-up and loss of mass on a sensor chip optically.
Test [3] shares this target. As to the kind of experiment: Biacore (SPR): His-tagged HM1.24 antigen coupled directly to the chip (NHS chemistry), antibody as analyte; simultaneous (global Langmuir) fitting.
Test [4] shares this target. As to the kind of experiment: Biacore (SPR): antibody on a protein A chip, HM1.24 antigen as analyte; antibody untreated.

Chain of His-tagged HM1.24 antigen, residues N49-A163 of the extracellular domain (human) (Q10589 49-163): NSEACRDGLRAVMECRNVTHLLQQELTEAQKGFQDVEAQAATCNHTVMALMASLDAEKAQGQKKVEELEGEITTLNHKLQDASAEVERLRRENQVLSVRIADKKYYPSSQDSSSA

B1: Antibody comprising the HM1.24_H2.2 heavy chain variant and the HM1.24_L4 light chain (antibody, V domains shown)
VH: EVQLVESGGGLVKPGGSLRLSCAASGYTFTPYWMQWVRQAPGKGLEWMGSIFPGSGDTRYSQSFQGQVTISADKSISTAYMELSSLRSEDTAVYYCARGLRRGGYYFDYWGQGTLVTVSS
VL: DIVMTQSPLSLPVTLGQPASISCKASQDVNTAVAWYLQKPGKSPKLLIYSASNRYTGVPDRITGSGSGTDFTLKISRVEAEDVGVYYCQQHYSTPFTFGSGTKLEIKR
As to B1, the Kd (usually the constant that tells how readily two partners part at equilibrium) in test [1] came to 0.0732 nM; in test [3], 0.0826 nM. Also, the koff (in general, a measure of how fast the partners let go of each other) in test [1] came to 7.02e-05 s⁻¹; in test [2] it was 0.00257 s⁻¹; in test [3] it was 7.27e-05 s⁻¹; in test [4], 0.00287 s⁻¹. For the same molecule, the results for the kon in test [1] and in test [3] were 958000 M⁻¹ s⁻¹ and 879000 M⁻¹ s⁻¹, respectively.
